This is an account of results in the supplement of paper PMC7877785.

± gives the uncertainty stated by the source.

This data set in a line: self-splicing fitness, log relative to wild type (ln ratio); higher = more splicing; Tetrahymena group I intron in knt gene, E. coli kanamycin selection, DiMSum; sequences stand for … in CUCUCU…GGAGGGAAAAGUUAUCAGGCAUGCACCUGGUAGCUAGUCUUUAAACCAAUAGAUUGCAUCGGUUUAAAAGGCAAGACCGUCAAAUUGCGGGAAAGGGGUCAACAGCCGUUCAGUACCAAGUCUCAGGGGAAACUUUGAGAUGGCCUUGCAAAGGGUAUGGUAAUAAGCUGACGGACAUGGUCCUAACCACGCAGCCAAGUCCUAAGUCAACAGAUCUUCUGUUGAUAUGGAUGCAGUUCACAGACUAAAUGUCGGUCGGGGAAGAUGUAUUCUUCUCAUAAGAUAUAGUCGGACCUCUCCUUAAUGGGAGCUAGCGGAUGAAGUGAUGCAACACUGGAGCCGCUGGGAACUAAUUUGUAUGCGAAAGUAUAUUGAUUAGUUUUGGAGUACUCGUGGUCG
An outline of the steps:
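The eight P1ex-region nucleotides of an intron in the knt kanamycin-resistance gene on pET-22b(+) were all randomised and the library put into E. coli BL21(DE3). Six replicate transformations were grown overnight at 37°C or 30°C on LB agar with or without 25 μg/mL kanamycin, together with 100 μg/mL carbenicillin, 50 μM IPTG and 0.2% rhamnose. Colonies were pooled and amplicon-sequenced on an Illumina HiSeq 2500. Fitness from DiMSum is the error-weighted combination of wild-type-normalised replicate fold changes, kanamycin over none.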

Regarding CUAAAGCAAUAUUACGUGGC, the “self-splicing fitness (ln)” value reads like this: (30 °C) -2.9 ± 0.12; (37 °C) -2.05 ± 0.15.
Taken in the same sequence, the figures for ACCCAGCAAUAUUACGCGUU were -0.424 ± 0.049 and 0.328 ± 0.066.
Taken in the same sequence, the figures for UUGUAGCAAUAUUACGUUAU were -2.7 ± 0.41 and -2.1 ± 0.25.
With CAUAAGCAAUAUUACGCAUU, the “self-splicing fitness (ln)” value is -3.5 ± 0.18 (30 °C) and -1.35 ± 0.17 (37 °C).
Taken in the same sequence, the figures for AGAUAGCAAUAUUACGCUCU were -3.31 ± 0.23 and -1.46 ± 0.21.
Turning to UGAGAGCAAUAUUACGUCUC, the “self-splicing fitness (ln)” value (30 °C) was -1.78 ± 0.38.
Consider AGUUAGCAAUAUUACGAGUC, for which the “self-splicing fitness (ln)” value is -2.76 ± 0.33 (30 °C) and -3.27 ± 0.47 (37 °C).
Taken in the same sequence, the figures for GCCAAGCAAUAUUACGAGAG were -2.88 ± 0.34 and -1.53 ± 0.22.
In the case of AGGCAGCAAUAUUACGGUUA, the “self-splicing fitness (ln)” value runs as follows: (30 °C) -0.809 ± 0.077; (37 °C) 0.285 ± 0.08.
Taken in the same sequence, the figures for UUUUAGCAAUAUUACGGAUU were -1.8 ± 0.1 and -1.36 ± 0.15.
Taken in the same sequence, the figures for AGGGAGCAAUAUUACGGGGG were -2.67 ± 0.2 and -3.03 ± 0.37.
Taken in the same sequence, the figures for GAGCAGCAAUAUUACGAUGA were -2.62 ± 0.25 and -1.03 ± 0.14.
As to GUCGAGCAAUAUUACGCUUU, the “self-splicing fitness (ln)” value reads like this: (30 °C) -1.81 ± 0.18; (37 °C) -1.92 ± 0.2.
Taken in the same sequence, the figures for ACGCAGCAAUAUUACGCACG were -1.8 ± 0.12 and -1.31 ± 0.12.
For ACGGAGCAAUAUUACGAACU, the “self-splicing fitness (ln)” value by setting is: (30 °C) -0.565 ± 0.11; (37 °C) -0.0683 ± 0.16.
With AAUCAGCAAUAUUACGGAGC, the “self-splicing fitness (ln)” value reads like this: (30 °C) -2.64 ± 0.17; (37 °C) -0.807 ± 0.16.
For the sequence AUAGAGCAAUAUUACGGUGU, the “self-splicing fitness (ln)” value is, setting by setting: (30 °C) -1.24 ± 0.1; (37 °C) -0.567 ± 0.15.
Taken in the same sequence, the figures for AACAAGCAAUAUUACGUGUG were -1.69 ± 0.043 and -0.657 ± 0.05.
Regarding CCCUAGCAAUAUUACGUGUA, the “self-splicing fitness (ln)” value reads like this: (30 °C) -3.49 ± 0.25; (37 °C) -2.94 ± 0.21.
In the case of AUGUAGCAAUAUUACGCGCA, the “self-splicing fitness (ln)” value runs as follows: (30 °C) -0.46 ± 0.16; (37 °C) -0.226 ± 0.15.
Taken in the same sequence, the figures for AGUCAGCAAUAUUACGAGCU were -1.97 ± 0.17 and -0.789 ± 0.19.
As to GAAUAGCAAUAUUACGAUGU, the “self-splicing fitness (ln)” value runs as follows: (30 °C) -1.3 ± 0.076; (37 °C) -1.04 ± 0.12.
GCAUAGCAAUAUUACGCUAG: the “self-splicing fitness (ln)” value runs as follows: (30 °C) -2.24 ± 0.3; (37 °C) -1.82 ± 0.23.
Taken in the same sequence, the figures for CGGCAGCAAUAUUACGGUUA were -0.164 ± 0.067 and -0.476 ± 0.059.
Taken in the same sequence, the figures for UAAAAGCAAUAUUACGACAU were -1.09 ± 0.012 and -0.402 ± 0.032.
For CGAUAGCAAUAUUACGGAUU, the “self-splicing fitness (ln)” value (30 °C) was -2.89 ± 0.11 and the “self-splicing fitness (ln)” value (37 °C) is -2.61 ± 0.2.
Taken in the same sequence, the figures for GCCAAGCAAUAUUACGGUUG were -3.23 ± 0.099 and -2.54 ± 0.14.
As to GUGGAGCAAUAUUACGCCGG, the “self-splicing fitness (ln)” value (30 °C) was -2.57 ± 0.46.
UUCAAGCAAUAUUACGAGCA: the “self-splicing fitness (ln)” value by setting is: (30 °C) -1.01 ± 0.1; (37 °C) -0.0614 ± 0.12.
Taken in the same sequence, the figures for GCUCAGCAAUAUUACGUCUA were -0.844 ± 0.1 and -0.494 ± 0.097.
Take GAGGAGCAAUAUUACGAUUG: the “self-splicing fitness (ln)” value (37 °C) is -1.93 ± 0.29.
Still for that read-out and setting: the figure for GAGGAGCAAUAUUACGCUAG is -1.8 ± 0.27.
In the case of GUUUAGCAAUAUUACGUCAU, the “self-splicing fitness (ln)” value is -0.998 ± 0.069 (30 °C) and -0.817 ± 0.099 (37 °C).
Taken in the same sequence, the figures for GCAUAGCAAUAUUACGCGCG were -1.06 ± 0.079 and -0.259 ± 0.092.
Taken in the same sequence, the figures for GCUUAGCAAUAUUACGUGAA were -0.117 ± 0.064 and 0.311 ± 0.074.
Taken in the same sequence, the figures for UCUGAGCAAUAUUACGAUGG were -1.42 ± 0.16 and -0.717 ± 0.2.
For UAUCAGCAAUAUUACGCAUU, the “self-splicing fitness (ln)” value runs as follows: (30 °C) -1.42 ± 0.076; (37 °C) -0.197 ± 0.09.
For the sequence AGGGAGCAAUAUUACGGAGC, the “self-splicing fitness (ln)” value by setting is: (30 °C) -2.84 ± 0.38; (37 °C) -1.95 ± 0.48.
Taken in the same sequence, the figures for CACCAGCAAUAUUACGUCCU were -3.31 ± 0.13 and -1.87 ± 0.14.
